Here are results for 2 substances from US10835618.

Assay [1] concerns the target Polyvalent sialyl Le^a-HSA (Isosep AB). The assay can be described thus: ELISA on plates coated with sialyl-Lewis^a-HSA, OD 450nm.
Assay [2] has the same target. The assay can be described thus: SPR (Biacore X or 3000), sialyl Le^a-HSA coupled to CM5 chip; minor population. (In general: In SPR one partner is held on a chip, and binding of the other changes the refractive index at the surface.)
Assay [3] shares this target. The assay can be described thus: SPR, real-time sialyl Le^a-HSA binding, antigen on CM5 chip.
For assay [4] the target is unchanged. The assay can be described thus: SPR (Biacore X or 3000), sialyl Le^a-HSA coupled to CM5 chip; major population; major population (80%), two-population fit.
The target is the same in assay [5]. The assay can be described thus: SPR (Biacore X or 3000), sialyl Le^a-HSA coupled to CM5 chip; major population.
Assay [6] shares this target. The assay can be described thus: ELISA on coated sialyl-Lewis^a-HSA. (In general: An ELISA detects its analyte on a solid surface through an enzyme-linked reagent.)
Assay [7] shares this target. The assay can be described thus: SPR (Biacore X or 3000), sialyl Le^a-HSA coupled to CM5 chip; minor population; minor population (20%), two-population fit.

FG129 mAb (mouse FG129/29 IgG1 kappa) (antibody), sequence (heavy): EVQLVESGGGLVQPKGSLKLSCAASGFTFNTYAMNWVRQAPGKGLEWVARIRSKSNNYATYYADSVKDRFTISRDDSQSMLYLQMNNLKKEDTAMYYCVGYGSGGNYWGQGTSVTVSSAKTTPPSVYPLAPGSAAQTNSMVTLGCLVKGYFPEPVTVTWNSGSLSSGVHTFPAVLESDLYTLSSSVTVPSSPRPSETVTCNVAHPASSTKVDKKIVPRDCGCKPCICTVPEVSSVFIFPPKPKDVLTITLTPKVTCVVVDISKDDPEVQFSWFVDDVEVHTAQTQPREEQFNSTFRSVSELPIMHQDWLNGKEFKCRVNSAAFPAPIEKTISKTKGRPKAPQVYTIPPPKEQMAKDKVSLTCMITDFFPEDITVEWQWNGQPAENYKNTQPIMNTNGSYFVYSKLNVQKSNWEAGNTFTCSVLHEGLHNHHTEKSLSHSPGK
FG129 mAb (mouse FG129/29 IgG1 kappa) (antibody), sequence (light): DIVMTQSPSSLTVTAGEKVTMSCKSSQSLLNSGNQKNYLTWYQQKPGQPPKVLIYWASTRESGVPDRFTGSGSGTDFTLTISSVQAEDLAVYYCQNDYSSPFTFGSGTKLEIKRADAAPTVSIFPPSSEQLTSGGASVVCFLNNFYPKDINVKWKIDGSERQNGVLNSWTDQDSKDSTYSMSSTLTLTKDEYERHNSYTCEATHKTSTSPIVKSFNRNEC

Substance “CA19.9 (anti-sialyl lewis a Mab) (antibody)” returned an EC50 in assay [1] of 0.186 nM.

Consider “FG129 mAb (mouse FG129/29 IgG1 kappa) (antibody)”, for which the Kd in assay [2] is 0.00014 nM; in assay [3], 0.2 nM; in assay [4] it was 130 nM. For the same substance, the kon worked out at 88500 M⁻¹ s⁻¹ in assay [2], 620000 M⁻¹ s⁻¹ in assay [3] and 19700 M⁻¹ s⁻¹ in assay [5]. For the same substance, the koff is 0.00011 s⁻¹ in assay [3], 0.00257 s⁻¹ in assay [5] and 1.35e-08 s⁻¹ in assay [7]. Also, the EC50 turned out to be 0.287 nM in assay [1] and 0.1 nM in assay [6].

The EC50 is the concentration giving half of the maximal effect. Usually Kd stands for a measure of binding affinity in units of concentration. Lower therefore signals higher affinity. Broadly, the kon is the rate constant with which the complex forms. A lower kon goes with slow association. One may read the koff as a measure of how fast the partners let go of each other. A high value points to fast dissociation.
